Molecular target: 2081/anti-NF IgG
Experiment: ECL (ORIGEN Analyzer), competition with biotinylated-SEVNF

fold less effective in competition than SEVNF: 100 fold
Binder: SEVNL [SEVNL peptide]
